Test results published in article PMC9035704.
“And” between values parts separate entries of the source, which are not always exact repeats. Equal entries are not always repeated. Where two headings read alike, the source gives them in different places.

Key:
Experiment in all cases: cryo-EM structure
[1] = molecular target: Danio rerio calcium homeostasis modulator 1 (drCALHM1) (Danio rerio) (UniProt E7F2J4)
[2] = molecular target: Danio rerio calcium homeostasis modulator 1 (drCALHM1) (Danio rerio) (UniProt E7F2J4); remark: listed apart in the source
[3] = molecular target: Danio rerio calcium homeostasis modulator 1 (drCALHM1) (Danio rerio) (UniProt E7F2J4); remark: listed apart in the source

Danio rerio calcium homeostasis modulator 1 (drCALHM1) (from UniProt E7F2J4 1-346) (natural protein)
stoichiometry N [1]: 7 and 8
stoichiometry N [2]: 7
stoichiometry N [3]: 8
